Measured values taken from patent publication US20040265808A1, “Genes involved in osteogenesis, and methods of use” (priority 2001, published 2004).

Legend:
Format in all cases: cell-based, mouse
[1] = system: pluripotent cells C3H10T1/2, ST2 and C2C12; assay: Wnt-frizzled pathway and osteoblast differentiation, alkaline phosphatase measurement in pluripotent cells; settings: for effect on the activity of Wnt proteins (Wnt1, Wnt2, Wnt3a), alkaline phosphatase measurement: C3H10T1/2; for effect on BMP-2: C3H10T1/2 cells
From the text: FIGS. 1 to 7 represents the relationship between members of the Wnt-frizzled family, with bone formation, by measurement of alkaline phosphatase (ALP).
The inventors have also tested the capacity of Fz1 to interact with Wnt proteins and thus affect osteoblast differentiation. Overexpression of Fz1 decreased the activity of Wnt1, Wnt2 and Wnt3a in pluripotent cells C3H10T1/2 as determined by the alkaline phosphatase measurement (FIG. 4). However the expression of Fz3 or Fz4 increased the activity of Wnt proteins in the differentiation process (FIG. 6). […] This indicate that Frizzled may negatively or positively cooperate with their ligand proteins, Wnt, in these bone-related cells.
(§1) Mouse cell lines representing different stages of osteoblastic differentiation, C2C12, C2H10T1/2, ST2 and MC3T3-E1, were grown in the presence of agents capable of the induction of osteoblastic differentiation in vitro such as BMP2 and Sonic Hedgehog or in the presence of TGF beta (negative control) or with serum alone. Primary cells derived from mouse calvaria were also cultured for 0, 2, 7 14 and 21 days and RNA prepared for each time point. For example, C3H10T ½ and C2C12 can be obtained from the ATCC (Manassas, Va., USA) under the collection numbers CCL-226 and CRL-1772, respectively.

[2] = system: C3H10T1/2 cells; assay: Transient over-expression of candidate genes, cooperation with BMP2 by measurement of alkaline phosphatase; parameters: key: +: positive or negative cooperation with BMP2; −: positive or negative cooperation with BMP2; settings: for Validation in vitro (coop over BMP2) C3H10T1/2: alkaline phosphatase; for Validation in C2H10T1/2 (coop over BMP2): alkaline phosphatase at 48 hours
Procedure: as §1
(§2) The candidates genes are cloned in expression vectors and their ability to express a protein of the expected size verified by COS cells transient transfection. The genes are then transfected in C3H10T1/2 cells and/or C2C12 cells (transient over-expression) and positive or negative cooperation with BMP2 is evaluated by the measurement of alkaline phosphatase (enzymatic assay and TaqMan) at 48 hours. Controls of positive cooperation, recombinant Sonic Hedgehog, or negative cooperation, recombinant Noggin, are included in each test.

[3] = system: C2C12 cells; assay: as above; parameters: key: +: positive or negative cooperation with BMP2; −: positive or negative cooperation with BMP2
Procedure: as §1, §2

O=c1cc(-c2ccc(O)cc2)oc2cc(O)cc(O)c12 [Apigenin, reference compound]
activity of BMP-2 and Shh ([1]; C3H10T1/2, ST2 and C2C12): able to block

Fz3: frizzled receptor expressed in C3H10T1/2 cells
effect on the activity of Wnt proteins (Wnt1, Wnt2, Wnt3a), alkaline phosphatase measurement ([1]; overexpression): increased

Fz4: frizzled receptor expressed in C3H10T1/2 cells
effect on the activity of Wnt proteins (Wnt1, Wnt2, Wnt3a), alkaline phosphatase measurement ([1]; overexpression): increased

SEQ ID No 37: candidate gene, receptor tyrosine kinase Ufo/Ax1, overexpressed in cells
BMP2 induced Alkaline phosphatase activity ([1]; overexpressed in C2C12 or C3H10T1/2 cells): repress

TCF3: TCF protein, transcription factor of the Wnt pathway
effect on BMP-2 [1]: inhibitors

TCF4: TCF protein, transcription factor of the Wnt pathway
effect on BMP-2 [1]: inhibitors

Wnt3a
production of alkaline phosphatase (osteoblast differentiation) ([1]; overexpression, C3H10T1/2, ST2 and C2C12): increases

B1: 7 (nucleic acid, listed as Mus musculus)
chain: AATCTAGAATGAAGTCCTGCGGCCTTTTACCTTTCACGGTGCTCCTTGCTCTGGGGATCCTGGCACCCTGGACTGTGGAAGGAGGCAAAAATGATGCTATCAAAATCGGAGCCTGCCCTGCTAAAAAGCCTGCCCAGTGCCTTAAGCTTGAGAAGCCACAATGCCGTACTGACTGGGAGTGCCCGGGAAAGCAGAGGTGCTGCCAAGATGCTTGCGGTTCCAAGTGCGTGAATCCTGTTCCCATTCGCAAACCAGTGTGGAGGAAGCCTGGGAGGTGCGTCAAAACTCAGGCAAGATGTATGATGCTTAACCCTCCCAATGTCTGCCAGAGGGACGGGCAGTGTGACGGCAAATACAAGTGCTGTGAGGGTATATGTGGGAAAGTCTGCCTGCCCCCGATGACTAGTAA
Validation in vitro (coop over BMP2) C3H10T1/2 [2]: +
Validation in C2H10T1/2 (coop over BMP2) [2]: + coop over BMP2

B2: 11 (nucleic acid, listed as Mus musculus)
chain: AATCTAGAATGCAGTGGGCCTCCGTCCTGCTGCTGGCTGGGCTCTGCTCACTTTCCCAGGGCCAGTATGATGAAGACTCTCACTGGTGGATCCAATACCTCCGAAACCAGCAGTCCACCTACTACGACCCCTATGACCCTTACCCCTATGAGCCCTCTGAGCCTTACCCCTATGGAGTGGAAGAAGGCCCAGCCTATGCCTATGGTGCACCACCTCCACCAGAGCCCCGTGATTGTCCCCAAGAATGCGACTGTCCCCCCAACTTCCCCACAGCCATGTACTGTGACAACCGCAACCTCAAGTACCTGCCTTTTGTGCCCTCCCGCATGAAGTACGTCTACTTCCAGAACAACCAGATCTCTGCCATCCAGGAAGGTGTCTTTGACAATGCCACTGGGCTCCTCTGGGTCGCTCTACATGGCAACCAGATTACCAGTGACAAGGTAGGCAGGAAAGTCTTCTCCAAGCTGAGGCACTTGGAGAGGCTGTACTTGGACCACAACAACCTGACCCGGATGCCCGGCCCGCTGCCCCGATCCCTGAGAGAGCTCCACCTGGACCACAACCAGATCTCACGGGTCCCCAACAATGCTTTGGAGGGCCTGGAGAACCTCACGGCCTTATATCTCCACCACAATGAGATCCAGGAAGTGGGGAGTTCCATGAGAGGCCTCCGGTCCCTGATCCTACTAGACCTGAGTTATAACCACCTTCGGAGGGTACCCGACGGTCTGCCCTCAGCCCTGGAGCAGCTGTACCTAGAACACAACAATGTCTACACCGTCCCTGACAGCTACTTCCGGGGGTCACCCAAGCTGCTGTACGTCCGGTTGTCTCACAACAGTCTCACTAACAACGGCCTTGCTACCAACACCTTCAACTCCAGCAGCCTTCTTGAGCTAGACTTGTCTTACAATCAGCTGCAGAAGATCCCTCCTGTCAACACCAACCTGGAGAATCTTTACCTCCAGGGCAACAGGATCAATGAGTTCTCCATCAGCAGCTTCTGCACGGTGGTGGACGTCATGAACTTCTCCAAGCTGCAGGTGCTACGCCTGGATGGGAACGAGATCAAGCGCAGCGCAATGCCGGTGGACGCCCCACTCTGCCTGCGCCTCGCCAACCTCATCGAGATCACTAGTAA
Validation in vitro (coop over BMP2) C2C12 [3]: −
Validation in vitro (coop over BMP2) C3H10T1/2 [2]: −
Validation in C2H10T1/2 (coop over BMP2) [2]: − coop over BMP2

B3: 46 (nucleic acid, listed as Mus musculus)
chain: AATCTAGAATGGTGTCCACTAGCATCCCGGAGGTTAAAGCTCTCCGCAGCTCAGTCTCTGACTATGGGAACTATGATATCATAGTCCGGCATTACAACTACACAGGCAAGTTGAACATCGGGGCGGAGAAGGACCATGGCATTAAACTGACTTCAGTGGTGTTCATTCTCATCTGCTGCTTCATCATCCTAGAGAATATATTTGTCTTGCTAACTATTTGGAAAACCAAGAAGTTCCACCGGCCCATGTACTATTTCATAGGCAACCTAGCCCTCTCGGACCTATTAGCAGGCGTGGCTTACACAGCTAACCTGCTGTTGTCTGGGGCCACCACTTACAAGCTCACACCTGCCCAGTGGTTTCTGCGGGAAGGGAGTATGTTTGTGGCTCTCTCTGCATCAGTCTTCAGCCTCCTTGCCATCGCCATTGAGCGCTACATCACCATGCTGAAGATGAAACTACACAACGGGAGCAACAGCTCGCGCTCCTTTCTGCTGATCAGCGCCTGCTGGGTCATCTCCCTCATCCTGGGGGGCCTGCCCATCATGGGCTGGAACTGCATCAGCTCGCTGTCTAGCTGCTCCACCGTGCTCCCGCTCTACCACAAGCACTATATTCTCTTCTGCACCACCGTCTTCACTCTGCTCCTGCTTTCCATCGTCATCCTCTACTGCAGGATCTACTCCTTGGTCAGGACTCGAAGCCGCCGCCTGACCTTCCGCAAGAACATCTCCAAGGCCAGTCGCAGTTCTGAGAAGTCTCTGGCCTTGCTGAAGACGGTGATCATTGTCTTGAGTGTCTTCATTGCCTGCTGGGCCCCTCTCTTCATCCTACTACTGTTAGATGTGGGCTGCAAGGCGAAGACCTGTGACATCCTGTACAAAGCAGAGTACTTCCTGGTTCTGGCTGTGCTGAACTCAGGTACCAACCCCATCATCTACACTCTGACCAACAAGGAGATGCGCCGGGCCTTCATCCGGATCGTATCTTGTTGCAAATGCCCCAACGGAGACTCTGCTGGCAAATTCAAGAGGCCCATCATCCCAGGCATGGAATTTAGCCGCAGCAAATCAGACAACTCCTCTCACCCCCAGAAGGACGATGGGGACAACCCAGAGACCATTATGTCGTCTGGAAACGTCAATTCTTCTTCCACTAGTAA
Validation in vitro (coop over BMP2) C3H10T1/2 [2]: +
Validation in C2H10T1/2 (coop over BMP2) [2]: + coop over BMP2

B4: 24 (nucleic acid, listed as Mus musculus)
chain: CGATCGATATGGCCAGCCCGCTGCGCTCCTTGCTGTTCCTGCTGGCCGTCCTGGCCGTGGCCTGGGCGGCGACCCCAAAACAAGGCCCGCGAATGTTGGGAGCCCCGGAGGAGGCAGATGCCAATGAGGAAGGCGTGCGGCGAGCGTTGGACTTCGCTGTGAGCGAGTACAACAAGGGCAGCAACGATGCGTACCACAGCCGCGCCATACAGGTGGTGAGAGCTCGTAAGCAGCTCGTGGCTGGAGTGAACTATTTTTTGGATGTGGAGATGGGCCGAACTACATGTACCAAGTCCCAGACAAATTTGACTGACTGTCCTTTCCATGACCAGCCCCATCTGATGAGGAAGGCACTCTGCTCCTTCCAGATCTACAGCGTGCCCTGGAAAGGCACACACTCCCTGACAAAATTCAGCTGCAAAAATGCCGCGGCCGCTT
Validation in vitro (coop over BMP2) C3H10T1/2 [2]: −

B5: 67 (nucleic acid, listed as Mus musculus)
chain: AATCTAGAATGGCGTTGACTGCGGATGTGGCAGGACCAGCACCTTGGGGCTTCCGAATTAGCGGGGGCAGAGATTTCCACACACCCATCATTGTGACCAAGGTCACAGAGCGGGGCAAGGCTGAAGCAGCTGATCTCCGGCCTGGCGACATCATTGTGGCCATCAATGGACAGAGTGCAGAGAACATGCTACACGCGGAGGCCCAAAGCAAGATCCGACAGAGCGCCTCACCCCTAAGACTGCAGCTGGACCGGTCCCAAACAGCCTCTCCTGGGCAGACCAATGGGGAGGGCTCCTTGGAAGTGCTGGCAACCAGATTCCAGGGCTCCCTGAGGACACACCGTGACAGCCAGTCTTCCCAGAGGTCTGCCTGCTTCAGCCCAGTCTCTCTCAGCCCCAGGCCTTGCAGCCCCTTCTCCACCCCACCCCCTACCAGCCCAGTTGCCCTTTCTAAAGAGGATATGATTGGCTGTAGTTTCCAGAGTCTGACACACTCTCCAGGCCTTGCTGCTGCTCACCACTTGACCTACCCTGGCCACCCCACCAGCCAACAGGCCGGCCACAGCAGCCCAAGCGACTCCGCAGTGAGGGTGCTGCTCCATTCCCCAGGACGGCCCTCCAGCCCTAGGTTCAGCAGTTTGGATCTGGAGGAAGACTCAGAGGTGTTCAAGATGCTGCAGGAGAACCGCCAGGGACGGGCCGCCCCAAGGCAGTCCAGCTCTTTTCGACTCTTACAGGAAGCCTTGGAGGCTGAGGAGAGAGGTGGCACACCTGCCTTTGTGCCCAGCTCGCTGAGCTCCCAGGCTTCCTTGCCCACCTCCAGGGCCTTGGCCACTCCACCCAAGCTCCACACCTGTGAGAAATGCAGCGTCAACATCTCGAACCAGGCGGTCCGCATCCAGGAGGGGAGGTACCGACACCCTGGCTGCTACACTTGCGCAGACTGTGGGCTGAACCTGAAGATGCGCGGCCACTTCTGGGTGGGCAATGAGTTGTACTGCGAGAAGCATGCCCGCCAGCGCTACTCTATGCCTGGAACTCTCAACTCTCGAGCCACTAGTAA
Validation in vitro (coop over BMP2) C3H10T1/2 [2]: −
